Data as given in article PMC4514675, “Novel Apo E-Derived ABCA1 Agonist Peptide (CS-6253) Promotes Reverse Cholesterol Transport and Induces Formation of preβ-1 HDL In Vitro” (PLoS ONE, 2015).

What was measured:
[1] = system: BHK-ABCA1 plasma membrane microdomains; test: Cholesterol and phospholipid desorption from raft and non-raft domains of BHK-ABCA1 cells; type: cell-based, hamster; settings: 45 min
Experimental: Lipid labeling was performed as described previously with minor modifications. Briefly, BHK-cells were labeled with either 5 μCi/ml ^3[H] choline (Perkin-Elmer) for 48 h or 3 μCi/ml ^3[H] cholesterol (Perkin-Elmer) for 24 h, and then stimulated as described above. […] For each fraction, lipids were extracted by Folch and ^3[H]choline-labeled PtdCho, and SM were separated by TLC in the solvent system chloroform-methanol-water (65:35:4; v/v/v), and counted.
Supplementary file pone.0131997.s008.tif: S7 Fig CS-6253 desorbs phospholipids from raft and nonraft domains. […] After lipid extraction, ^3[H]cholesterol in each fraction was assessed for radioactivity. Radioactivity appearing in fractions corresponding to raft (1–5) and nonraft (6–10) material was pooled, and desorption of ^3[H]cholesterol and ^3[H]choline, from raft versus nonraft in the presence of apo A-I or CS-6253 was expressed as a percentage of control (100%, in the absence of acceptor) (S4 to S7 inset). […]
Sucrose density gradient fractionation was performed by ultracentrifugation (1,2). […] Ten fractions of 1ml were collected from top to bottom and analyzed for radioactivity, and lipid content ^3[H]-FC and ^3[H]-choline. […]

[2] = target: ABCA1 (Homo sapiens, UniProt O95477); test: Chemical cross-linking of ABCA1, dimer:monomer ratio (SDS-PAGE); type: cell-based; design: expressed in transfected cells; host or cells: BHK cells, stably transfected, induced with 10 nM mifepristone
Chain of ABCA1 (O95477 whole entry): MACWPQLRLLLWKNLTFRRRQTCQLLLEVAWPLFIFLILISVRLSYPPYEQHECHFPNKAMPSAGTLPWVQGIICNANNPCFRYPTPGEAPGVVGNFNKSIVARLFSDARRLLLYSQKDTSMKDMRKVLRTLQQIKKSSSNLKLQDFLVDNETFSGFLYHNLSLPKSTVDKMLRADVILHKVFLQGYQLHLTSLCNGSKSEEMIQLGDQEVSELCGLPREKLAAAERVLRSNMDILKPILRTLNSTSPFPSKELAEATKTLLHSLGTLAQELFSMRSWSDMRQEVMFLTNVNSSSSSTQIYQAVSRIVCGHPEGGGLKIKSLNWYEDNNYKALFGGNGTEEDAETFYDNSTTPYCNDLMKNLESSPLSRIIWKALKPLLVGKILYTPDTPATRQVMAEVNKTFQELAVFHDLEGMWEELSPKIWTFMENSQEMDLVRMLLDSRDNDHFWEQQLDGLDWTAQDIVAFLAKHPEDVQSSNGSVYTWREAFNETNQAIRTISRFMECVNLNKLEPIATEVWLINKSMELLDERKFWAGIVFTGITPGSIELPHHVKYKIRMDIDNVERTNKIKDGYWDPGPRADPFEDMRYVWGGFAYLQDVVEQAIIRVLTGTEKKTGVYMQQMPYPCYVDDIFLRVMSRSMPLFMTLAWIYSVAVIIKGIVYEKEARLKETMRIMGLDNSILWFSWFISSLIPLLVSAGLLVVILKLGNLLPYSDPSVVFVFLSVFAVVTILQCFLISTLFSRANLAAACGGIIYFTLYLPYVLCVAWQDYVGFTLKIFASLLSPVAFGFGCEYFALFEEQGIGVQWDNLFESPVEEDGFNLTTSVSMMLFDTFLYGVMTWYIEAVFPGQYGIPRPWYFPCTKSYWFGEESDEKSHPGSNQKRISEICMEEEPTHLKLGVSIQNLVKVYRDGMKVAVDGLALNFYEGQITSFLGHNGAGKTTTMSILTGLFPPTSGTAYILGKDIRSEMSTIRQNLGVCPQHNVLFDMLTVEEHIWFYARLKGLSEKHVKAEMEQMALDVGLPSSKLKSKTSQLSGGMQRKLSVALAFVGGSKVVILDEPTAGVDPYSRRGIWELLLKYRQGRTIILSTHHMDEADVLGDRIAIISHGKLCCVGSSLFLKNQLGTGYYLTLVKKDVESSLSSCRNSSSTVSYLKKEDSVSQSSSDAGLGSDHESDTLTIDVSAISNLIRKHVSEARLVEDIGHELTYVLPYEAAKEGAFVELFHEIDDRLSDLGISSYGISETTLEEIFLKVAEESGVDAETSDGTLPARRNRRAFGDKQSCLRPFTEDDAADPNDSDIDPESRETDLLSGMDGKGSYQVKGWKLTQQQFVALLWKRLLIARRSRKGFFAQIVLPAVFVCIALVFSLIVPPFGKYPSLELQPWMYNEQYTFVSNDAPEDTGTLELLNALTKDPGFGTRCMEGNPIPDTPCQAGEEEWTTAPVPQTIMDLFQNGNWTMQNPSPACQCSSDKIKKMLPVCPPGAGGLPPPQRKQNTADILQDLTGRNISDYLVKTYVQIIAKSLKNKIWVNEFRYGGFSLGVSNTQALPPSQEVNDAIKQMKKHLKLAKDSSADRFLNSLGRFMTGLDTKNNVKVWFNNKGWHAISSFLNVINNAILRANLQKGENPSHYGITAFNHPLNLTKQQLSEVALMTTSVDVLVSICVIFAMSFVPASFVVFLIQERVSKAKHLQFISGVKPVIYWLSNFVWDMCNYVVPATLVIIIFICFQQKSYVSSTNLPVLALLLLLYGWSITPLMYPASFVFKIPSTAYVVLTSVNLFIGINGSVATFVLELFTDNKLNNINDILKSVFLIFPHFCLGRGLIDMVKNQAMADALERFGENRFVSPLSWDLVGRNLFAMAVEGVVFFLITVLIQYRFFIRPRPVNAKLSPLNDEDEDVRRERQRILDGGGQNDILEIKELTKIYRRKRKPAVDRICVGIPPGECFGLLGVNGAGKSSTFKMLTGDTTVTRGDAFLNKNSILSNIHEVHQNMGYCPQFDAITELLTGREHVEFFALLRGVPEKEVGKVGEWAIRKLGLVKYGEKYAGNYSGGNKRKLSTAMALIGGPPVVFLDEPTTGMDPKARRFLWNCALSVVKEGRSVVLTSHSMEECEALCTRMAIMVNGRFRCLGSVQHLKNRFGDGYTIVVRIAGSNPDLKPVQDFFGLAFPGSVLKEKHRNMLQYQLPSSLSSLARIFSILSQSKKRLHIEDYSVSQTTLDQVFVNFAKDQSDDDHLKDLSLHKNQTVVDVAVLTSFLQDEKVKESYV
Experimental: Supplementary file pone.0131997.s004.tif: S3 Fig Chemical cross-linking of ABCA1 in intact BHK cells expressing ABCA1. BHK cells in 100-mm diameter dishes were stimulated with 10 nM mifepristone for 18–20 h. BHK cells expressing ABCA1 (100 μg of total protein) in the presence of apo A-I or CS-6253 at same molarity (0.96 μM) were cross-linked or not with 500 μM DSP. Cells were then lysed at 4°C with lysis buffer containing 0.5% n-dodecylmaltoside in the presence of a protease inhibitor mixture followed by low speed centrifugation to remove cell debris. The supernatants were treated or not with 50 mM DTT for 30 min at 37°C and then separated by SDS-PAGE (4–22.5%) in duplicate. After electrophoresis, ABCA1 was detected by an anti-ABCA1 antibody. GAPDH was used as loading control. (TIF) Click here for additional data file. […]

effect on ABCA1 oligomerization (in words) ([2]; BHK-ABCA1, DSP cross-linking): causes ABCA1 dimer formation
Substance: apolipoprotein A-I [apo A-I]
cholesterol desorption from rafts and non-rafts [1]: 25% | ratio of ABCA1 dimer: monomer ([2]; 0.93 μM (appendix) / 0.96 μM (S3 Fig), DSP 500 μM, densitometry): 69.22%±0.25
